According to the Human Domainome abundance scans (Beltran et al. 2025):
± gives the uncertainty stated by the source.

B1: SWI/SNF-related matrix-associated actin-dependent regulator of chromatin subfamily B member 1, residues 181 to 248; numbered along this chain, Q12824 (parent)
chain: SQPEVLVPIRLDMEIDGQKLRDAFTWNMNEKLMTPEMFSEILCDDLDLNPLTFVPAIASAIRQQIESY

Variants of: B1
Assay: abundance fitness (aPCA) (normalised: wild type 0, dead -1); higher = more abundant; growth selection in yeast, the domain comes from the species named
Conditions: Homo sapiens

Variant	abundance fitness
SQPEVRVPIRLDMEIDGQKLRDAFTWNMNEKLMTPEMFSEILCDDLDLNPLTFVPAIASAIRQQIESY [L6R]	-0.078 ± 0.06
SQPEVGVPIRLDMEIDGQKLRDAFTWNMNEKLMTPEMFSEILCDDLDLNPLTFVPAIASAIRQQIESY [L6G]	-0.217 ± 0.089
SQPEVFVPIRLDMEIDGQKLRDAFTWNMNEKLMTPEMFSEILCDDLDLNPLTFVPAIASAIRQQIESY [L6F]	-0.236 ± 0.12
SQPEVSVPIRLDMEIDGQKLRDAFTWNMNEKLMTPEMFSEILCDDLDLNPLTFVPAIASAIRQQIESY [L6S]	0.036 ± 0.06
SQPEVAVPIRLDMEIDGQKLRDAFTWNMNEKLMTPEMFSEILCDDLDLNPLTFVPAIASAIRQQIESY [L6A]	-0.219 ± 0.24
SQPEVMVPIRLDMEIDGQKLRDAFTWNMNEKLMTPEMFSEILCDDLDLNPLTFVPAIASAIRQQIESY [L6M]	0.141 ± 0.083
SQPEVQVPIRLDMEIDGQKLRDAFTWNMNEKLMTPEMFSEILCDDLDLNPLTFVPAIASAIRQQIESY [L6Q]	-0.217 ± 0.29
SQPEVTVPIRLDMEIDGQKLRDAFTWNMNEKLMTPEMFSEILCDDLDLNPLTFVPAIASAIRQQIESY [L6T]	-0.126 ± 0.082
SQPEVHVPIRLDMEIDGQKLRDAFTWNMNEKLMTPEMFSEILCDDLDLNPLTFVPAIASAIRQQIESY [L6H]	-0.212 ± 0.13
SQPEVIVPIRLDMEIDGQKLRDAFTWNMNEKLMTPEMFSEILCDDLDLNPLTFVPAIASAIRQQIESY [L6I]	-0.03 ± 0.43
YQPEVLVPIRLDMEIDGQKLRDAFTWNMNEKLMTPEMFSEILCDDLDLNPLTFVPAIASAIRQQIESY [S1Y]	0.088 ± 0.11
EQPEVLVPIRLDMEIDGQKLRDAFTWNMNEKLMTPEMFSEILCDDLDLNPLTFVPAIASAIRQQIESY [S1E]	0.194 ± 0.081
TQPEVLVPIRLDMEIDGQKLRDAFTWNMNEKLMTPEMFSEILCDDLDLNPLTFVPAIASAIRQQIESY [S1T]	-0.09 ± 0.066
IQPEVLVPIRLDMEIDGQKLRDAFTWNMNEKLMTPEMFSEILCDDLDLNPLTFVPAIASAIRQQIESY [S1I]	0.238 ± 0.3
LQPEVLVPIRLDMEIDGQKLRDAFTWNMNEKLMTPEMFSEILCDDLDLNPLTFVPAIASAIRQQIESY [S1L]	-0.021 ± 0.049
MQPEVLVPIRLDMEIDGQKLRDAFTWNMNEKLMTPEMFSEILCDDLDLNPLTFVPAIASAIRQQIESY [S1M]	0.127 ± 0.071
CQPEVLVPIRLDMEIDGQKLRDAFTWNMNEKLMTPEMFSEILCDDLDLNPLTFVPAIASAIRQQIESY [S1C]	-0.095 ± 0.067
GQPEVLVPIRLDMEIDGQKLRDAFTWNMNEKLMTPEMFSEILCDDLDLNPLTFVPAIASAIRQQIESY [S1G]	-0.061 ± 0.059
FQPEVLVPIRLDMEIDGQKLRDAFTWNMNEKLMTPEMFSEILCDDLDLNPLTFVPAIASAIRQQIESY [S1F]	-0.132 ± 0.13
VQPEVLVPIRLDMEIDGQKLRDAFTWNMNEKLMTPEMFSEILCDDLDLNPLTFVPAIASAIRQQIESY [S1V]	-0.048 ± 0.094
AQPEVLVPIRLDMEIDGQKLRDAFTWNMNEKLMTPEMFSEILCDDLDLNPLTFVPAIASAIRQQIESY [S1A]	-0.151 ± 0.074
PQPEVLVPIRLDMEIDGQKLRDAFTWNMNEKLMTPEMFSEILCDDLDLNPLTFVPAIASAIRQQIESY [S1P]	-0.109 ± 0.083
RQPEVLVPIRLDMEIDGQKLRDAFTWNMNEKLMTPEMFSEILCDDLDLNPLTFVPAIASAIRQQIESY [S1R]	-0.307 ± 0.09
KQPEVLVPIRLDMEIDGQKLRDAFTWNMNEKLMTPEMFSEILCDDLDLNPLTFVPAIASAIRQQIESY [S1K]	0.167 ± 0.077
DQPEVLVPIRLDMEIDGQKLRDAFTWNMNEKLMTPEMFSEILCDDLDLNPLTFVPAIASAIRQQIESY [S1D]	-0.123 ± 0.27
WQPEVLVPIRLDMEIDGQKLRDAFTWNMNEKLMTPEMFSEILCDDLDLNPLTFVPAIASAIRQQIESY [S1W]	-0.435 ± 0.074
SQPRVLVPIRLDMEIDGQKLRDAFTWNMNEKLMTPEMFSEILCDDLDLNPLTFVPAIASAIRQQIESY [E4R]	-0.234 ± 0.041

Variant	abundance fitness
SQPCVLVPIRLDMEIDGQKLRDAFTWNMNEKLMTPEMFSEILCDDLDLNPLTFVPAIASAIRQQIESY [E4C]	-0.32 ± 0.063
SQPGVLVPIRLDMEIDGQKLRDAFTWNMNEKLMTPEMFSEILCDDLDLNPLTFVPAIASAIRQQIESY [E4G]	-0.354 ± 0.17
SQPDVLVPIRLDMEIDGQKLRDAFTWNMNEKLMTPEMFSEILCDDLDLNPLTFVPAIASAIRQQIESY [E4D]	-0.031 ± 0.088
SQPTVLVPIRLDMEIDGQKLRDAFTWNMNEKLMTPEMFSEILCDDLDLNPLTFVPAIASAIRQQIESY [E4T]	-0.281 ± 0.11
SQPSVLVPIRLDMEIDGQKLRDAFTWNMNEKLMTPEMFSEILCDDLDLNPLTFVPAIASAIRQQIESY [E4S]	-0.331 ± 0.062
SQPQVLVPIRLDMEIDGQKLRDAFTWNMNEKLMTPEMFSEILCDDLDLNPLTFVPAIASAIRQQIESY [E4Q]	-0.182 ± 0.075
SQPAVLVPIRLDMEIDGQKLRDAFTWNMNEKLMTPEMFSEILCDDLDLNPLTFVPAIASAIRQQIESY [E4A]	-0.166 ± 0.062
SQPWVLVPIRLDMEIDGQKLRDAFTWNMNEKLMTPEMFSEILCDDLDLNPLTFVPAIASAIRQQIESY [E4W]	-0.599 ± 0.1
SQPPVLVPIRLDMEIDGQKLRDAFTWNMNEKLMTPEMFSEILCDDLDLNPLTFVPAIASAIRQQIESY [E4P]	-0.024 ± 0.062
SQPMVLVPIRLDMEIDGQKLRDAFTWNMNEKLMTPEMFSEILCDDLDLNPLTFVPAIASAIRQQIESY [E4M]	-0.201 ± 0.074
SQPVVLVPIRLDMEIDGQKLRDAFTWNMNEKLMTPEMFSEILCDDLDLNPLTFVPAIASAIRQQIESY [E4V]	0.047 ± 0.12
SQPFVLVPIRLDMEIDGQKLRDAFTWNMNEKLMTPEMFSEILCDDLDLNPLTFVPAIASAIRQQIESY [E4F]	-0.294 ± 0.098
SQPLVLVPIRLDMEIDGQKLRDAFTWNMNEKLMTPEMFSEILCDDLDLNPLTFVPAIASAIRQQIESY [E4L]	-0.292 ± 0.056
SQPIVLVPIRLDMEIDGQKLRDAFTWNMNEKLMTPEMFSEILCDDLDLNPLTFVPAIASAIRQQIESY [E4I]	-0.495 ± 0.17
SPPEVLVPIRLDMEIDGQKLRDAFTWNMNEKLMTPEMFSEILCDDLDLNPLTFVPAIASAIRQQIESY [Q2P]	-0.079 ± 0.41
SFPEVLVPIRLDMEIDGQKLRDAFTWNMNEKLMTPEMFSEILCDDLDLNPLTFVPAIASAIRQQIESY [Q2F]	0.392 ± 0.24
SHPEVLVPIRLDMEIDGQKLRDAFTWNMNEKLMTPEMFSEILCDDLDLNPLTFVPAIASAIRQQIESY [Q2H]	-0.266 ± 0.16
SQPERLVPIRLDMEIDGQKLRDAFTWNMNEKLMTPEMFSEILCDDLDLNPLTFVPAIASAIRQQIESY [V5R]	-0.205 ± 0.053
SQPEQLVPIRLDMEIDGQKLRDAFTWNMNEKLMTPEMFSEILCDDLDLNPLTFVPAIASAIRQQIESY [V5Q]	0.184 ± 0.11
SQPESLVPIRLDMEIDGQKLRDAFTWNMNEKLMTPEMFSEILCDDLDLNPLTFVPAIASAIRQQIESY [V5S]	-0.174 ± 0.11
SQPEHLVPIRLDMEIDGQKLRDAFTWNMNEKLMTPEMFSEILCDDLDLNPLTFVPAIASAIRQQIESY [V5H]	0.505 ± 0.19
SQPEWLVPIRLDMEIDGQKLRDAFTWNMNEKLMTPEMFSEILCDDLDLNPLTFVPAIASAIRQQIESY [V5W]	-0.312 ± 0.37
SQPEDLVPIRLDMEIDGQKLRDAFTWNMNEKLMTPEMFSEILCDDLDLNPLTFVPAIASAIRQQIESY [V5D]	0.045 ± 0.095
SQPEYLVPIRLDMEIDGQKLRDAFTWNMNEKLMTPEMFSEILCDDLDLNPLTFVPAIASAIRQQIESY [V5Y]	-0.096 ± 0.14
SQPEELVPIRLDMEIDGQKLRDAFTWNMNEKLMTPEMFSEILCDDLDLNPLTFVPAIASAIRQQIESY [V5E]	-0.103 ± 0.15
SQPEALVPIRLDMEIDGQKLRDAFTWNMNEKLMTPEMFSEILCDDLDLNPLTFVPAIASAIRQQIESY [V5A]	-0.086 ± 0.26
SQPELLVPIRLDMEIDGQKLRDAFTWNMNEKLMTPEMFSEILCDDLDLNPLTFVPAIASAIRQQIESY [V5L]	-0.009 ± 0.08

Variant	abundance fitness
SQPEGLVPIRLDMEIDGQKLRDAFTWNMNEKLMTPEMFSEILCDDLDLNPLTFVPAIASAIRQQIESY [V5G]	-0.302 ± 0.1
SQPETLVPIRLDMEIDGQKLRDAFTWNMNEKLMTPEMFSEILCDDLDLNPLTFVPAIASAIRQQIESY [V5T]	0.213 ± 0.13
SQPEMLVPIRLDMEIDGQKLRDAFTWNMNEKLMTPEMFSEILCDDLDLNPLTFVPAIASAIRQQIESY [V5M]	-0.107 ± 0.28
SQPEILVPIRLDMEIDGQKLRDAFTWNMNEKLMTPEMFSEILCDDLDLNPLTFVPAIASAIRQQIESY [V5I]	-0.438 ± 0.23
SQPEKLVPIRLDMEIDGQKLRDAFTWNMNEKLMTPEMFSEILCDDLDLNPLTFVPAIASAIRQQIESY [V5K]	-0.051 ± 0.31
SQPECLVPIRLDMEIDGQKLRDAFTWNMNEKLMTPEMFSEILCDDLDLNPLTFVPAIASAIRQQIESY [V5C]	0.116 ± 0.077
SQPEPLVPIRLDMEIDGQKLRDAFTWNMNEKLMTPEMFSEILCDDLDLNPLTFVPAIASAIRQQIESY [V5P]	-0.366 ± 0.2
SQPEFLVPIRLDMEIDGQKLRDAFTWNMNEKLMTPEMFSEILCDDLDLNPLTFVPAIASAIRQQIESY [V5F]	-0.079 ± 0.17
SQTEVLVPIRLDMEIDGQKLRDAFTWNMNEKLMTPEMFSEILCDDLDLNPLTFVPAIASAIRQQIESY [P3T]	0.063 ± 0.067
SQREVLVPIRLDMEIDGQKLRDAFTWNMNEKLMTPEMFSEILCDDLDLNPLTFVPAIASAIRQQIESY [P3R]	0.161 ± 0.038
SQFEVLVPIRLDMEIDGQKLRDAFTWNMNEKLMTPEMFSEILCDDLDLNPLTFVPAIASAIRQQIESY [P3F]	0.05 ± 0.078
SQDEVLVPIRLDMEIDGQKLRDAFTWNMNEKLMTPEMFSEILCDDLDLNPLTFVPAIASAIRQQIESY [P3D]	0.266 ± 0.074
SQSEVLVPIRLDMEIDGQKLRDAFTWNMNEKLMTPEMFSEILCDDLDLNPLTFVPAIASAIRQQIESY [P3S]	0.129 ± 0.052
SQVEVLVPIRLDMEIDGQKLRDAFTWNMNEKLMTPEMFSEILCDDLDLNPLTFVPAIASAIRQQIESY [P3V]	-0.146 ± 0.045
SQYEVLVPIRLDMEIDGQKLRDAFTWNMNEKLMTPEMFSEILCDDLDLNPLTFVPAIASAIRQQIESY [P3Y]	0.002 ± 0.092
SQNEVLVPIRLDMEIDGQKLRDAFTWNMNEKLMTPEMFSEILCDDLDLNPLTFVPAIASAIRQQIESY [P3N]	0.214 ± 0.098
SQHEVLVPIRLDMEIDGQKLRDAFTWNMNEKLMTPEMFSEILCDDLDLNPLTFVPAIASAIRQQIESY [P3H]	-0.097 ± 0.15
SQKEVLVPIRLDMEIDGQKLRDAFTWNMNEKLMTPEMFSEILCDDLDLNPLTFVPAIASAIRQQIESY [P3K]	0.289 ± 0.09
SQAEVLVPIRLDMEIDGQKLRDAFTWNMNEKLMTPEMFSEILCDDLDLNPLTFVPAIASAIRQQIESY [P3A]	0.02 ± 0.067
SQQEVLVPIRLDMEIDGQKLRDAFTWNMNEKLMTPEMFSEILCDDLDLNPLTFVPAIASAIRQQIESY [P3Q]	0.178 ± 0.061
SQLEVLVPIRLDMEIDGQKLRDAFTWNMNEKLMTPEMFSEILCDDLDLNPLTFVPAIASAIRQQIESY [P3L]	0.003 ± 0.064
SQMEVLVPIRLDMEIDGQKLRDAFTWNMNEKLMTPEMFSEILCDDLDLNPLTFVPAIASAIRQQIESY [P3M]	0.006 ± 0.085
SQWEVLVPIRLDMEIDGQKLRDAFTWNMNEKLMTPEMFSEILCDDLDLNPLTFVPAIASAIRQQIESY [P3W]	-0.186 ± 0.073
SQCEVLVPIRLDMEIDGQKLRDAFTWNMNEKLMTPEMFSEILCDDLDLNPLTFVPAIASAIRQQIESY [P3C]	-0.297 ± 0.07
SQIEVLVPIRLDMEIDGQKLRDAFTWNMNEKLMTPEMFSEILCDDLDLNPLTFVPAIASAIRQQIESY [P3I]	-0.245 ± 0.35
